# Laboratory results as given in patent US20170319675A1.
# What was measured:
# Test in all cases: REVEAL MHC-peptide binding assay
# HLA-DR1 (human) = biological target: HLA-DR1 (human)
# HLA-DR2 (human) = biological target: HLA-DR2 (human)
# HLA-DR4 (human) = biological target: HLA-DR4 (human)
# HLA-DR5 (human) = biological target: HLA-DR5 (human)
# HLA-DR7 (human) = biological target: HLA-DR7 (human)
Relative Binding Score (% compared to the positive control) (HLA-DR1 (human)),Relative Binding Score (% compared to the positive control) (HLA-DR2 (human)),Relative Binding Score (% compared to the positive control) (HLA-DR4 (human)),Relative Binding Score (% compared to the positive control) (HLA-DR5 (human)),Relative Binding Score (% compared to the positive control) (HLA-DR7 (human)),Binder
0.87,0.28,5.89,0.12,3.69,"TFSYVDPVITSISPKYG (peptide, from a related filing) [MET-005]"
40.1,0.05,6.12,104,0.27,"TLGEFLKLDRERAKN (peptide, from a related filing) [BIR-002]"
